Data on eleven molecules can be found in US20240199761A1 (AstraZeneca / MedImmune, published 2024).

In experiment [1] the target is T1, recombinant mouse PAD4 (mouse, UniProt Q9Z183 1-666).
T1 construct: Recombinant
Put plainly: SPR; biotinylated antibody captured on C1-streptavidin, PAD4 flowed over. A general note: Surface plasmon resonance follows binding to a sensor surface in real time, without labels.

Experiment [2] deals with T2, recombinant human PAD2 (human, UniProt Q9Y2J8 1-665, enzymatically biotinylated on an Avi-tag).
T2 construct: Recombinant, biotinylated on an Avi-tag and captured on streptavidin; also called peptidyl arginine deiminase 2
Description: SPR (Biacore 8K), biotinylated PAD2 on streptavidin chip, Fab flowed over.

The target in experiment [3] is T3, recombinant mouse PAD2 (mouse, UniProt Q08642 1-673, enzymatically biotinylated on an Avi-tag).
T3 construct: Recombinant, biotinylated on an Avi-tag
Described as above.

Experiment [4] concerns the target recombinant human PAD2 (human, UniProt Q9Y2J8 1-665, enzymatically biotinylated on an Avi-tag (when captured on the SPR chip)). Description: cell-based or functional assay.
The target of experiment [5] is T4, recombinant mouse PAD2 (mouse, UniProt Q08642 1-673).
T4 construct: Recombinant and tagged
Description: ratio of SPR KDs, mouse PAD2 against human PAD2; antibody captured on C1-Protein G', PAD flowed over.

The target in experiment [6] is recombinant human PAD2 (human, UniProt Q9Y2J8 1-665). Description: cell-based or functional assay.
Experiment [7] deals with T5, mouse PAD2, recombinant, tags at the N-terminus (mouse, UniProt Q08642 1-673, enzymatically biotinylated on an Avi-tag where captured on streptavidin).
T5 construct: not shown: N-terminal tags incl; Avi-tag
Description: SPR; antibody on C1-Protein G', PAD2 flowed over.

The target in experiment [8] is T6, cynomolgus PAD2, recombinant, tags at the N-terminus (cynomolgus, UniProt G7NUR0 1-665, enzymatically biotinylated on an Avi-tag where captured on streptavidin).
T6 construct: also called Cyno PAD2; not shown: N-terminal tags incl; Avi-tag
Description: SPR; antibody on C1-Protein G', PAD2 flowed over.

Experiment [9] concerns the target T7, human PAD2, recombinant, tags at the N-terminus (human, UniProt Q9Y2J8 1-665, enzymatically biotinylated on an Avi-tag where captured on streptavidin).
T7 construct: not shown: N-terminal tags incl; Avi-tag
Put plainly: SPR; antibody on C1-Protein G', PAD2 flowed over.

The target in experiment [10] is T5, mouse PAD2, recombinant, tags at the …. Description: SPR; antibody captured on a surface, PAD2 flowed over.
Experiment [11] addresses T6, cynomolgus PAD2, recombinant, tags at …. The description is as above.
Experiment [12] addresses T7, human PAD2, recombinant, tags at the …. Described as above.
Experiment [13] has as its target T5, mouse PAD2, recombinant, tags at the …. Put plainly: SPR; antibody on C1-Protein G', PAD2 flowed over. This is another data set of the same source.
Experiment [14] addresses T6, cynomolgus PAD2, recombinant, tags at …. Put plainly: SPR; antibody on C1-Protein G', PAD2 flowed over. The source holds these as a separate data set.
In experiment [15] the target is T7, human PAD2, recombinant, tags at the …. Put plainly: SPR; antibody on C1-Protein G', PAD2 flowed over. The source holds these as a separate data set.
The target of experiment [16] is T8, huFcRn (human, UniProt P55899 24-297; P61769 21-119, limits assumed).
T8 construct: also called human neonatal Fc receptor
Description: huFcRn affinity chromatography, pH gradient elution.

Substitutions are numbered along the chain they refer to.

B1: AB1630204 (mouse anti-PAD4) (antibody, V domains shown)
VH: QVQLQQPGAELVKPGASVKLSCKASGYTFTSYWMHWVKQRPGRGPEWIGRIDPNSGGTKYNEKFKSKAILTVDKPSSTAYMQLSSLTSEDSAVYYCAREGGDYWYFDVWGAGTTVTVSS
VL: QIVLTQSPALMSASPGEKVTMTCSANSGLRYMYWYQQKPRSSPKPWIYLTSNLASGVPARFSGSGSGTSYSLTISSMEAEDAATYYCQQWSSIPPTFGAGTKLELK
notes: Biotinylated antibody captured on the chip
The term Kd denotes a measure of binding affinity in units of concentration. The koff is a measure of how fast the partners let go of each other. For orientation: kon means the rate constant with which the complex forms. For the molecule B1, in experiment [1], the dissociation constant Kd came to 1310 pM, the dissociation rate constant (koff) was 0.000314 s⁻¹ and the kon was 239000 M⁻¹ s⁻¹.

B2: PAD40175 hIgG1 ngl-2 (anti-PAD2) Fab (Fab, V domains shown)
VH: not shown
VL: QAVLTQPSSVSVAPGKTATITCGGDNIGSKSVHWYQQKPGQAPLLVIFYDTDRPSGVPERFSGSNSGNTATLTISRVEAGDEADYYCQVWDSNGDHYVFGTGTKLTVL
notes: Tested as Fab
As to B2, the results for the Kd in experiment [2] and in experiment [3] were 6730 pM and 2350 pM, respectively.

B3: AB1630205 (mouse anti-PAD4) (antibody, V domains shown)
VH: EVQLVESGGGLVKPGGSRKLSCAASGFTFSDYGMHWVRQAPEKGLEWVAYISSGSSTIYYADTVKGRFTISRDNAKNTLFLQMTSLRSEDTAMYYCTRTYYDDAMDYWGQGTSVTVSS
VL: SIVMTQTPKFLLVSAGDRVTITCKASQSVSNDVVWYQQKPGQSPKLLISYASNRYTGVPDRFTGSGYGTDFTFTISSVQAEDLAVYFCQQDYSSPWTFGGGTKLEIK
notes: as for B1
For B3, in experiment [1], the Kd amounted to 94 pM, the dissociation rate constant (koff) was found to be 0.000106 s⁻¹ and the kon was 1.14e+06 M⁻¹ s⁻¹.

B4: Clone 08 (Bis3, TM; PAD2 Fab, PAD4 scFv) (bispecific antibody, human IgG1, lambda)
heavy: not shown
light: SYVLTQPPSVSVSPGQTASITCSGDKVGDKYVSWYQQKPGQSPVLVIYQDSQRPSGIPERFSGSNSGNTATLTISGTQAMDEADYYCQTWAPDVLLFGSGTKVTVLGQPKAAPSVTLFPPSSEELQANKATLVCLISDFYPGAVTVAWKADSSPVKAGVETTTPSKQSNNKYAASSYLSLTPEQWKSHRSYSCQVTHEGSTVEKTVAPTECS
Consider B4, for which, in experiment [4], the “potency (IC50), Histone-H3 citrullination ELISA, recombinant PAD2” value (“potency (IC50) … recombinant PAD2” for short) was < 1000 pM.

B5: Clone 22 (IgG) (141LO0035 hIgG1 pgl-4) (antibody, V domains shown)
VH: not shown
VL: SYVLTQPPSVSVSPGQTASITCSGDKVGDKYVSWYQQKPGQSPVLVIYQDSQRPSGIPERFSGSNSGNTATLTISGTQAMDEADYYCQTWAPDVLLFGSGTKVTVL
notes: also called PAD2 IgG
As for B5, the “fold difference in KD, mouse/human” value in experiment [5] worked out at 1.2 fold. The “Potency (IC50), Histone-H3 assay” value in experiment [6] was found to be 138 pM.

B6: Clone 22 (141LO0035 hIgG1 pgl-4), anti-PAD2, as IgG (antibody, V domains shown)
VH: not shown
VL: B5 VL
For B6, the “potency (IC50) … recombinant PAD2” value in [4] is < 1000 pM.

B7: anti-PAD2 Clone 22 (141LO0035 hIgG1 pgl-4), IgG (antibody, V domains shown)
VH: not shown
VL: B5 VL
notes: also called Clone 22 (IgG)
Turning to B7, the dissociation constant (Kd) in [7] was determined as 4.59 pM; in experiment [8], 11 pM; in [9], 3.9 pM; in experiment [10], 4.59 pM; in [11], 11 pM; in experiment [12], 3.9 pM. Also, the koff in experiment [10] was 2.24e-05 s⁻¹; in [11], 3.33e-05 s⁻¹; in [12] it was 1.71e-05 s⁻¹. For the same molecule, the kon in experiment [10] amounted to 4.93e+06 M⁻¹ s⁻¹; in experiment [11], 3.06e+06 M⁻¹ s⁻¹; in experiment [12], 4.36e+06 M⁻¹ s⁻¹.

B8: 141LO0002 hIgG1 pgl-4 (anti-PAD2) Fab (Fab, V domains shown)
VH: not shown
VL: B5 VL with Q88E, T89V, W90G, A91V, P92D, D93Y, V94E, L95Y, L96V
Regarding B8, the Kd in experiment [2] was 2780 pM; in experiment [3] it was 38500 pM.

B9: Clone 07 (Bis3, TM; PAD4 Fab, PAD2 scFv) (bispecific antibody, human IgG1, lambda)
heavy: not shown
light: QSALTQPRSVSGSPGQSVTISCTGTSGDVGRYSHVSWYQQHPGKAPKLIIYNVYERPSGVPDRFSGSKSGNTASLTISGLQAEDEADYYCSSHSRSSTPVLFGGGTKLTVLGQPKAAPSVTLFPPSSEELQANKATLVCLISDFYPGAVTVAWKADSSPVKAGVETTTPSKQSNNKYAASSYLSLTPEQWKSHRSYSCQVTHEGSTVEKTVAPTECS
Take B9: the “potency (IC50) … recombinant PAD2” value in experiment [4] was < 1000 pM.

B10: Clone 07, Bis3 anti-PAD4 Fab / anti-PAD2 scFv, Fc TM (bispecific antibody, human IgG1, lambda)
heavy: not shown
light: B9 light
notes: Bivalent for PAD2 and for PAD4; also called Clone 7*; PAD240007
As to B10, the Kd came to 16.2 pM in experiment [13]; 21.9 pM in experiment [14]; 16.1 pM in [15]; 16.2 pM in [7]; 21.9 pM in experiment [8]; 16.1 pM in experiment [9]. Moreover, the koff in experiment [13] came out at 4.45e-05 s⁻¹; in experiment [14], 5.46e-05 s⁻¹; in experiment [15] it was 3.21e-05 s⁻¹. In addition, the kon in [13] is 2.76e+06 M⁻¹ s⁻¹; in experiment [14], 2.61e+06 M⁻¹ s⁻¹; in experiment [15], 2e+06 M⁻¹ s⁻¹.

B11: Clone 07 (Bis3, TM; Fab anti-PAD4, scFv anti-PAD2) (bispecific antibody, human IgG1, lambda)
heavy: not shown
light: B9 light
notes: Bivalent bispecific IgG-HC-scFv; also called Clone 7*; PAD240007
For the molecule B11, the “fold difference in KD, mouse/human” value in experiment [5] was found to be 1 fold. The “Potency (IC50), Histone-H3 assay” value in experiment [6] is 238 pM. In experiment [16], the “HPLC retention” value stood at 17.8 min and the Relative retention is -0.081.
